Laboratory results as given in publication PMC2776932 (The Febs Journal, 2009).

Molecular target: T1, GFP-tagged Lsm188p (Lsm8p with the N-terminal domain of Lsm1p) (S. cerevisiae, UniProt P47017 1-51; P47093 11-109)
T1 chain (looked up): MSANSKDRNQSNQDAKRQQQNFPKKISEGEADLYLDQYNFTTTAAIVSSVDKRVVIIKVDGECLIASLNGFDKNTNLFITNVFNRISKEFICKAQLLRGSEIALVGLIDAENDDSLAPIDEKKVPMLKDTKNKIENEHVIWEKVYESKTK
Test: co-IP

B1: Lsm7–Myc (genomically encoded Lsm7p with 13myc tag) (natural protein, S. cerevisiae, UniProt P53905 1-115, looked up)
chain: MHQQHSKSENKPQQQRKKFEGPKREAILDLAKYKDSKIRVKLMGGKLVIGVLKGYDQLMNLVLDDTVEYMSNPDDENNTELISKNARKLGLTVIRGTILVSLSSAEGSDVLYMQK
  reduction of co-precipitated Lsm7p against wild-type: > 50 % reduction
